Entries after “also recorded” stand apart in the source; their conditions may differ. Numbered stars: 1 amine (or outer) side, 2 acyl side, 3 side chain; on linkers, the order of the positions; unused ones are H or OH. Bridge positions count the residues as written; N and C are the ends. Ends that are not written are not given here. mXylylene = c1cc(C[*:1])cc(C[*:2])c1

This is an account of results in patent publication US20250188151A1, “C-JUN ANTAGONIST PEPTIDES” (The University of Bath, priority 2022, published 2025).

Data set [1] addresses T1, cJun bZIP/TRE DNA interaction (transcriptional block of TRE-mDHFR) (Homo sapiens, UniProt P05412, S292Y).
T1 construct: expressed in transfected cells; host or cells: E. coli BL21 Gold carrying pES300d-TRE-mDHFR and pES230d-cJun bZIP
The data set is described as follows: Transcription Block Survival (TBS) assay: colony counting and growth competition in E. coli. The settings on record: vs transcriptionally blocked cells (TRE-mDHFR + cJun bZIP). Format: cell-based. The text has this:
Library Construction and TBS Assay: Library inserts were produced using PCR fill-in reactions from synthesised primers (Sigma) with degenerate codons at the desired positions to produce the correct residue options. The library was subcloned using SacI and AscI sites into the pET24a plasmid containing A-FosW. The primers used were cJun-Hinge-Lib-F: 5′-[…] TATGCC-3′ (SEQ ID NO: 49) and cJun-Hinge-Lib_R: 5′-[…] GTTC-3′ (SEQ ID NO: 50). The library DNA was transformed into NEB 10-beta electrocompetent E. coli cells. The following equation was utilised to determine library coverage by the number of single colonies: E=100×(1−1/n)^m where E is the percentage of the library missing, m is the number of colonies collected and n is the library size. […] Library DNA quality was assessed by sequencing both the DNA pool and a number of single colonies to show degenerate codons in the correct positions in the pool and to show a diversity of library members from single colonies. The pool of library DNA was transformed into BL21 Gold cells already containing pES300d-TRE-mDHFR and pES230d-cJun bZIP.
Selective pressure is applied by growing the bacteria in M9 minimal media with TMP (2-4 μM) alongside ampicillin, kanamycin and chloramphenicol to maintain the required plasmids, and IPTG (1 mM) to induce protein expression. The library transformants were first plated out onto selective agar plates (2 μM TMP) and grown at 37° C. for 72-96 h. Optimisation experiments (FIG. 5) indicate that 4 μM TMP is optimum for selection however a lower stringency is used initially before selection is increased in later steps. Colonies from this first round of selection were pooled and serially grown in liquid culture at starting OD600 of 0.05 and grown at 37° C. with shaking at 200 rpm until the OD600 reached 0.6. TMP concentration was 2 μM in the first liquid culture passage before it was increased to the optimum 4 μM in subsequent passages. […] At each passage step, a sample of the culture was plated on LB agar (supplemented with antibiotics to maintain plasmids) to select and sequence individual colonies, and a DNA pool was also sequenced. This allows the occurrence of library members to be monitored as winner sequences are selected for. Assay Validation experiments utilised a modified assay methodology whereby overnight cultures from glycerol stocks of the Control Strains (Table 2) were diluted to OD600=0.5 and 50 μL was plated on a selective M9 minimal medium agar plate.
Transcription block survival (TBS) is an intracellular assay that utilises cell survival as a readout. […] This enzyme is absolutely essential for survival since it is required for the production of purines needed for DNA and amino acid synthesis. […]. We produced a mDHFR gene (FIGS. 2 and 3) by rational design to introduce 15 TRE sites into the coding DNA sequence to allow a robust cJun transcriptional block whilst minimising alteration to the expressed protein (TRE-mDHFR). In particular, the resulting TRE-mDHFR construct was produced via two silent and thirteen conservative mutations. […] The accessible surface areas of all other amino acid residues were calculated using the ‘Accessible Surface Area and Accessibility Calculation for Protein’ tool (http://cib.cf.ocha.ac.jp/bitool/ASA/). […]

In data set [2] the target is cJun bZIP (Homo sapiens, UniProt P05412, S292Y). Description: CD spectra and thermal denaturation of peptide/cJun heterodimers. The settings on record: heterodimer with cJun bZIP, Example 1.
Description: Circular Dichroism (CD): An Applied Photophysics Chirascan was used for CD measurements, with a 200 μL sample in a 1 mm path length CD cell. Protein/DNA samples were suspended in 150 mM potassium phosphate, 150 mM potassium fluoride and 5 mM TCEP at pH 7.4 and were equilibrated for 30 minutes before measurement. […] These scans were averaged and converted to molar residue ellipticities (MRE). Thermal denaturation experiments were performed by measuring the ellipticity at 222 nm over a 1 to 90° C. gradient at 1° C. increments. Post-melt scans at 20° C. confirmed the transitions were reversible as they overlaid within 10% of the pre-melt scan.
Circular Dichroism (CD): An Applied Photophysics Chirascan was used for CD measurements, with a 200 μL sample in a 1 mm path length CD cell. Protein/DNA samples were suspended in 150 mM potassium phosphate, 150 mM potassium fluoride and 5 mM TCEP at pH 7.4 and were equilibrated for 30minutes before measurement. […] Thermal denaturation experiments were performed by measuring the ellipticity at 222 nm over a 1 to 90° C. gradient at 1° C. increments. Post-melt scans at 20° C. confirmed the transitions were reversible as they overlaid within 10% of the pre-melt scan.
Peptide helicity was determined by quantifying the CD signal at 222 nm of peptide only samples. Thermal denaturation experiments were then used to determine the Tm of peptide-c-Jun heterodimers, which was used as an approximate measure of target engagement. […] The same 60 amino acid c-Jun bZIP construct was used for all experiments, regardless of antagonist peptide length.
For data set [3], the target named is c-Jun bZIP (expressed in E. coli) (Homo sapiens) (UniProt P05412). The data set is described as follows: cell_activity. The settings on record: TBS assay.
Data set [4] has as its target T2, cJun bZIP (human, UniProt P05412 252-308, limits assumed).
T2 chain: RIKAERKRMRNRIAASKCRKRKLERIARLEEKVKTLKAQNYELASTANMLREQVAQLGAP
Description: cell-based or functional assay.

The target in data set [5] is T2, cJun bZIP. The data set is described as follows: CD thermal denaturation.
The target in data set [6] is T2, cJun bZIP. The data set is described as follows: CD thermal denaturation, peptide 5 µM and c-Jun 5 µM.
Data set [7] has as its target T2, cJun bZIP. Description: cell-based or functional assay.
The target in data set [8] is T2, cJun bZIP. Description: ITC (PEAQ-ITC), peptide injected into cJun, one site model.
Data set [9] addresses T2, cJun bZIP. Description: cell-based or functional assay.
Data set [10] deals with T2, cJun bZIP.

Turning to “MASLDELQAEIEQLEERNYALRKEIEDLQKQLEKLGAPHHHHHH [FosW]”, the “effect on TRE-mDHFR transcriptional block / colony numbers” value in data set [1] is on record as “no significant increase in colony numbers; also recorded: unable to effectively dissociate the cJun bZIP from TRE DNA”. Also, in the data set with cJun bZIP [2], the “Tm (° C.) (CD)” value was 54 °C.

In the case of WT-mDHFR gene, in data set [3] (presumed nonspecific plasmid binding), the activity (fold reduction in colony count) came out at 1.3.

With “MASTDTLQAETDQLEDEKYALQTEIANLLKEKEKLGAPHHHHHH [cFos LZ, human cFos leucine zipper domain construct]”, the “effect on TRE-mDHFR transcriptional block / colony numbers” value in [1] is recorded as “no significant increase in colony numbers; also recorded: unable to effectively dissociate the cJun bZIP from TRE DNA”.

TRE-mDHFR gene (15 TRE sites) yielded an activity (fold reduction in colony count) in [3] (4 uM TMP, 1 mM IPTG) of 21.

B1: HingeW variant meta DBMBW, linear (peptide)
peptide: EAEELVVEEDVLEEEIEQLEERNYALRAEICNLSCQ-NH2
modifications: not fully specified; cysteine pairing not given here
B1: the “IC50 (µM), CD” value in the data set with cJun bZIP [4] stood at 91.1 µM.

B2: HingeW variant meta DBMBW, cyclised (peptide)
peptide: EAEELVVEEDVLEEEIEQLEERNYALRAEICNLSCQ-NH2
modifications: linker 31-35 via mXylylene; not fully specified
In the case of B2, the “IC50 (µM), CD” value with cJun bZIP [4] came out at 61.5 µM.

B3: HingeW variant 0W, cyclised (peptide)
peptide: EAEELVVEEDVLEEEIEQLEERNYALRSEICSLQCQ-NH2
modifications: linker 31-35 via mXylylene; not fully specified
B3: the “IC50 (µM), CD” value with cJun bZIP [4] stood at 77.6 µM.

B4: HingeW peptide variant 23 (peptide)
peptide: Ac-EAEELVVEEDVLEEEIEQLEERNYALRKEIKDLQDQ-NH2
modifications: lactam 31-35
SMILES: CC[C@H](C)[C@H](NC(=O)[C@H](CCC(=O)O)NC(=O)[C@H](CCCCN)NC(=O)[C@H](CCCNC(=N)N)NC(=O)[C@H](CC(C)C)NC(=O)[C@H](C)NC(=O)[C@H](Cc1ccc(O)cc1)NC(=O)[C@H](CC(N)=O)NC(=O)[C@H](CCCNC(=N)N)NC(=O)[C@H](CCC(=O)O)NC(=O)[C@H](CCC(=O)O)NC(=O)[C@H](CC(C)C)NC(=O)[C@H](CCC(N)=O)NC(=O)[C@H](CCC(=O)O)NC(=O)[C@@H](NC(=O)[C@H](CCC(=O)O)NC(=O)[C@H](CCC(=O)O)NC(=O)[C@H](CCC(=O)O)NC(=O)[C@H](CC(C)C)NC(=O)[C@@H](NC(=O)[C@H](CC(=O)O)NC(=O)[C@H](CCC(=O)O)NC(=O)[C@H](CCC(=O)O)NC(=O)[C@@H](NC(=O)[C@@H](NC(=O)[C@H](CC(C)C)NC(=O)[C@H](CCC(=O)O)NC(=O)[C@H](CCC(=O)O)NC(=O)[C@H](C)NC(=O)[C@H](CCC(=O)O)NC(C)=O)C(C)C)C(C)C)C(C)C)[C@@H](C)CC)C(=O)N[C@H]1CCCCNC(=O)C[C@@H](C(=O)N[C@@H](CCC(N)=O)C(N)=O)NC(=O)[C@H](CCC(N)=O)NC(=O)[C@H](CC(C)C)NC(=O)[C@H](CC(=O)O)NC1=O
notes: Synthetic, NΔ20 CΔ7; Best single lactamised peptide; also called cyclised form of 22/23
On to B4, for which, in the data set with cJun bZIP [5], the “heterodimer ΔTm against parent sequence 11” value was ~8 ° C and the “heterodimer ΔTm from lactamisation (23 against linear 22)” value is ~9 ° C. Moreover, the “Tm (° C.) of peptide-c-Jun heterodimer” value with cJun bZIP [6] turned out to be 65 ° C. In addition, in the data set with cJun bZIP [7], the “IC50 CD” value was 52.7 µM. Further, in the data set with cJun bZIP [8], the “-TΔS” value was found to be 14 kcal/mol; the Kd turned out to be 0.0866 µM; the “Stoichiometry, n” value amounted to 0.97; the ΔG is -9.66 kcal/mol. For the same molecule, the ΔH in the data set with cJun bZIP [8] was -23.6 kcal/mol. The “fold lower IC50 than 11” value in the data set with cJun bZIP [9] stood at 1.6 fold.

B5: HingeW variant peptide 17 (peptide)
peptide: Ac-EAEELVVEEKVLEDEIEQLEERNYALRKEIEDLQKQ-NH2
modifications: lactam 10-14
SMILES: CC[C@H](C)[C@H](NC(=O)[C@H](CCC(=O)O)NC(=O)[C@H](CCCCN)NC(=O)[C@H](CCCNC(=N)N)NC(=O)[C@H](CC(C)C)NC(=O)[C@H](C)NC(=O)[C@H](Cc1ccc(O)cc1)NC(=O)[C@H](CC(N)=O)NC(=O)[C@H](CCCNC(=N)N)NC(=O)[C@H](CCC(=O)O)NC(=O)[C@H](CCC(=O)O)NC(=O)[C@H](CC(C)C)NC(=O)[C@H](CCC(N)=O)NC(=O)[C@H](CCC(=O)O)NC(=O)[C@@H](NC(=O)[C@H](CCC(=O)O)NC(=O)[C@@H]1CC(=O)NCCCC[C@H](NC(=O)[C@H](CCC(=O)O)NC(=O)[C@H](CCC(=O)O)NC(=O)[C@@H](NC(=O)[C@@H](NC(=O)[C@H](CC(C)C)NC(=O)[C@H](CCC(=O)O)NC(=O)[C@H](CCC(=O)O)NC(=O)[C@H](C)NC(=O)[C@H](CCC(=O)O)NC(C)=O)C(C)C)C(C)C)C(=O)N[C@@H](C(C)C)C(=O)N[C@@H](CC(C)C)C(=O)N[C@@H](CCC(=O)O)C(=O)N1)[C@@H](C)CC)C(=O)N[C@@H](CCC(=O)O)C(=O)N[C@@H](CC(=O)O)C(=O)N[C@@H](CC(C)C)C(=O)N[C@@H](CCC(N)=O)C(=O)N[C@@H](CCCCN)C(=O)N[C@@H](CCC(N)=O)C(N)=O
notes: Synthetic, NΔ20 CΔ7; also called cyclised form of 16/17
Regarding B5, in the data set with cJun bZIP [5], the “increase in cJun heterodimer Tm from its linear form 16” value is ~9 ° C. Besides, in the data set with cJun bZIP [6], the “Tm (° C.) of peptide-c-Jun heterodimer” value came out at 64 ° C. The “IC50 CD” value in the data set with cJun bZIP [7] turned out to be 74.9 µM. In addition, in the data set with cJun bZIP [8], the “-TΔS” value came to 4.34 kcal/mol; binding was characterised by a dissociation constant (Kd) of 0.0696 µM; the “Stoichiometry, n” value worked out at 1.2; the ΔG was -9.77 kcal/mol. In the data set with cJun bZIP [8], the ΔH was -14.1 kcal/mol.

B6: FosW (peptide)
peptide: MASLDELQAEIEQLEERNYALRKEIEDLQKQLEKLGAPHHHHHH
modifications: not fully specified
notes: Recombinant, capped and C-terminally 6xHis-tagged; Lacks the acidic extension
As to B6, the “heterodimer Tm” value in the data set with cJun bZIP [10] was determined as 54 ° C. Also, the “IC50, CD antagonism of cJun/TRE DNA (peak at ~281 nM)” value with cJun bZIP [9] amounted to 120 µM.

B7: cJun bZIP (protein)
chain: T2 chain
For B7, the Tm (° C.) (CD) stood at 39.8 ° C.

B8: HingeW variant 0W, linear (peptide)
peptide: EAEELVVEEDVLEEEIEQLEERNYALRSEICSLQCQ-NH2
modifications: not fully specified; cysteine pairing not given here
Take B8: the “IC50 (µM), CD” value in the data set with cJun bZIP [4] stood at 86.7 µM.
